Results: patent publication US20250145680A1 (REMD BIOTHERAPEUTICS, published 2025)
Where a chain is given by its changes, count along the chain named. Names may count otherwise. Blank lines part the entries; values can stand above or below the binder they belong to.

Target: T1, Type I IFN receptor (IFNAR) (UniProt P17181 28-557; P48551 27-515, limits assumed)
T1 sequence (looked up) 1: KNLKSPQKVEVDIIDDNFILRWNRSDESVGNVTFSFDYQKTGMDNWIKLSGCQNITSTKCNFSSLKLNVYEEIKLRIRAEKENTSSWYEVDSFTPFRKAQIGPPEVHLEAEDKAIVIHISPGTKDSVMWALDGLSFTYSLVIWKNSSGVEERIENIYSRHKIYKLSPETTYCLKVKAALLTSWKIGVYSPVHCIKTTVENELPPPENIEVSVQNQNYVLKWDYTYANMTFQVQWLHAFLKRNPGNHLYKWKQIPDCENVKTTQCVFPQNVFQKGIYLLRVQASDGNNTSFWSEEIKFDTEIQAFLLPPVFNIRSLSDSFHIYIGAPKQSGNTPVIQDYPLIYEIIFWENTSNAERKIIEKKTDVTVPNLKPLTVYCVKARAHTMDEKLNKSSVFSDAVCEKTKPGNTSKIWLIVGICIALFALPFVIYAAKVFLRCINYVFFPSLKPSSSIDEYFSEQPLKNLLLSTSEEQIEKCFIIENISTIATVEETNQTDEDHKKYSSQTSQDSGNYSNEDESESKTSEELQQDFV
T1 sequence (looked up) 2: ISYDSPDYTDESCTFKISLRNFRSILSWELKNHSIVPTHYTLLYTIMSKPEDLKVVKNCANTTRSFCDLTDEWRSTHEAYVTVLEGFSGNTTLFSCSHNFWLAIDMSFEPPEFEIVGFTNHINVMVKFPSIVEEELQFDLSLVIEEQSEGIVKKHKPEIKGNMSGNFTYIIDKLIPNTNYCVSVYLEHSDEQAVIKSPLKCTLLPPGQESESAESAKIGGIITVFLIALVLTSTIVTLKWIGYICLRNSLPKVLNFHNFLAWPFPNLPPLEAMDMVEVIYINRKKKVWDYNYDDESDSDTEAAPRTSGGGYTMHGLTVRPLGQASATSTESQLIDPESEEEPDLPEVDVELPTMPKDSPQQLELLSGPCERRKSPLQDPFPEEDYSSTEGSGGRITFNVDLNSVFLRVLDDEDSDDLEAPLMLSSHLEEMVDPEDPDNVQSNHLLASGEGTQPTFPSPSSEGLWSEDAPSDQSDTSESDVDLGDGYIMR
Assay: cell-based or functional assay

EC50 ratio1 (EC50 of FP/EC50 of IFN-α2b) on PD-L1-negative cells; IFN-α reporter assay (SEAP), PD-L1 blocked with REMD290: 33.9 fold
B1: anti-PD-L1 Ab-con-IFN-α heterodimeric fusion molecule (FP-19), con-IFN-α (R150A), G8 linker (other)
light: DIQMTQSPSSVSASVGDRVTITCKTSQDVNTAVAWYQQKPGQAPRLLIYWASTRHTGVPDRFSGSGSGTDFTLTISSLQAEDVAVYYCQQHYNTPLTFGGGTKLEIKRTVAAPSVFIFPPSDEQLKSGTASVVCLLNNFYPREAKVQWKVDNALQSGNSQESVTEQDSKDSTYSLSSTLTLSKADYEKHKVYACEVTHQGLSSPVTKSFNRGEC
heavy 1: QMQLVQSGAEVKKTGSSVKVSCKASGYTFTSYSINWVRQAPGKGLEWVAYFYVGNGYTDYNEKFKGRVTMTRDTSTSTVYMELSSLRSEDTAVYYCARGGLPYYFDYWGQGTLVTVSSASTKGPSVFPLAPCSRSTSESTAALGCLVKDYFPEPVTVSWNSGALTSGVHTFPAVLQSSGLYSLSSVVTVPSSSLGTKTYTCNVDHKPSNTKVDKRVESKYGPPCPPCPAPEFLGGPSVFLFPPKPKDTLMISRTPEVTCVVVDVSQEDPEVQFNWYVDGVEVHNAKTKPREEQFNSTYRVVSVLTVLHQDWLNGKEYKCKVSNKGLPSSIEKTISKAKGQPREPQVCTLPPSQEEMTKNQVSLSCAVKGFYPSDIAVEWESNGQPENNYKTTPPVLDSDGSFFLVSRLTVDKSRWQEGNVFSCSVMHEALHNHYTQKSLSLSLGGGGGGGGGCDLPQTHSLGNRRALILLAQMRRISPFSCLKDRHDFGFPQEEFDGNQFQKAQAISVLHEMIQQTFNLFSTKDSSAAWDESLLEKFYTELYQQLNDLEACVIQEVGVEETPLMNVDSILAVKKYFQRITLYLTEKKYSPCAWEVVRAEIMASFSLSTNLQERLRRKE
heavy 2: QMQLVQSGAEVKKTGSSVKVSCKASGYTFTSYSINWVRQAPGKGLEWVAYFYVGNGYTDYNEKFKGRVTMTRDTSTSTVYMELSSLRSEDTAVYYCARGGLPYYFDYWGQGTLVTVSSASTKGPSVFPLAPCSRSTSESTAALGCLVKDYFPEPVTVSWNSGALTSGVHTFPAVLQSSGLYSLSSVVTVPSSSLGTKTYTCNVDHKPSNTKVDKRVESKYGPPCPPCPAPEFLGGPSVFLFPPKPKDTLMISRTPEVTCVVVDVSQEDPEVQFNWYVDGVEVHNAKTKPREEQFNSTYRVVSVLTVLHQDWLNGKEYKCKVSNKGLPSSIEKTISKAKGQPREPQVYTLPPCQEEMTKNQVSLWCLVKGFYPSDIAVEWESNGQPENNYKTTPPVLDSDGSFFLYSRLTVDKSRWQEGNVFSCSVMHEALHNHYTQKSLSLSLG

EC50 ratio1 (EC50 of FP/EC50 of IFN-α2b) on PD-L1-negative cells; IFN-α reporter assay (SEAP), PD-L1 blocked with REMD290: 1140 fold
B2: anti-PD-L1 Ab-con-IFN-α heterodimeric fusion molecule (FP-20), con-IFN-α (A146D and R150A), G8 linker (other)
light: B1 light
heavy 1: B1 heavy 1 with A598D
heavy 2: B1 heavy 2
